Source: patent publication US20240150440A1 (LUMEN BIOSCIENCE, published 2024)
Like-named read-outs stand apart in the source and are kept apart here.

How the values were obtained:
[1] = target: T1, recombinant SARS-CoV-2 RBD with C-terminal AviTag (SARS-CoV-2, UniProt P0DTC2 319-541)
[2] = target: T1, recombinant SARS-CoV-2 RBD with …; remark: listed apart in the source
[3] = target: T1, recombinant SARS-CoV-2 RBD with …; test: ELISA, competition with coated ACE2-Fc for RBD
[4] = target: SARS-COV-2 Wuhan Reference RBD (SARS-CoV-2, UniProt P0DTC2 319-541); test: ELISA, RBD coated
[5] = target: T1, recombinant SARS-CoV-2 RBD with …; test: BLI, biotinylated RBD on streptavidin biosensors
[6] = target: T1, recombinant SARS-CoV-2 RBD with …; test: ELISA, competition with coated ACE2-Fc for RBD [Cont. 7]

B1: MBP-5HVZ-R2A-C5-H6 (VHH, not shown: large carriers; small tags and cut ends)
VHH: QVQLVESGGGLVQPGGSLRLSCAASGTWGNIQYLSWFRQAPGKRREFVAAITPNNGTNYADSVKGRFTISRDNAKNTVYLQMNSLKPEDTAVYYCTAVLWYTTKEGPYDYWGQGTQVTVSS
IC50 [1]: 13.3 nM

B2: MBP-5HVZ-R2E-D2-H6 (VHH, not shown: large carriers; small tags and cut ends)
VHH: QVQLVESGGGLVQPGGSLRLSCAASGHQLSTNATHWFRQAPGKNREFVASIGSGSSSYYADSVKGRFTISRDNAKNTVYLQMNSLKPEDTAVYYCTALGGDELDGMTYDYWGQGTQVTVSS
IC50 [2]: 6.8 nM
Kd [2]: 19.1 nM

B3: PP1176 MBP-5HVZ-PAPA-R2a-F3-H6 (VHH)
VHH: QVQLVESGGGLVQPGGSLRLSCAASGSITSINWMHWFRQAPGKDREGVASISQTGRGSYADSVKGRFTISRDNAKNTVYLQMNSLKPEDTAVYYCAAASRTGTPYNYWGQGTQVTVSS
notes: Form: Dimer
IC50 [3]: 10.4 nM
EC50 [4]: 0.29 nM

B4: PP1177 MPB-scTRP-PAPA-R2a-F3-H6 (VHH)
VHH: QVQLVESGGGLVQPGGSLRLSCAASGSITSINWMHWFRQAPGKDREGVASISQTGRGSYADSVKGRFTISRDNAKNTVYLQMNSLKPEDTAVYYCAAASRTGTPYNYWGQGTQVTVSS
notes: Form: Trimer
IC50 [3]: 83.6 nM

B5: PP1143 MBP-5HVZ-PAPA-R2b-D5-H6 (VHH)
VHH: QVQLVESGGGLVQPGGSLRLSCAASGYADEINMVHWYRQAPGKGREFVAAIASGGSTFYADSVKGRFTISRDNAKNTVYLQMNSLKPEDTAVYYCAAIPRPSLSYAHDYAYWGQGTQVTVSS
notes: Form: Dimer
IC50 [3]: 8.4 nM

B6: PP1131 MBP-4B0F-PAPA-R2b-D5-H6 (VHH)
VHH: QVQLVESGGGLVQPGGSLRLSCAASGYADEINMVHWYRQAPGKGREFVAAIASGGSTFYADSVKGRFTISRDNAKNTVYLQMNSLKPEDTAVYYCAAIPRPSLSYAHDYAYWGQGTQVTVSS
notes: Form: Heptamer
IC50 [3]: 14.5 nM

B7: PP1155 MPB-scTRP-PAPA-R2b-D5-H6 (VHH)
VHH: QVQLVESGGGLVQPGGSLRLSCAASGYADEINMVHWYRQAPGKGREFVAAIASGGSTFYADSVKGRFTISRDNAKNTVYLQMNSLKPEDTAVYYCAAIPRPSLSYAHDYAYWGQGTQVTVSS
notes: Form: Trimer
IC50 [3]: 46.5 nM

B8: PP916 MBP-5HVZ-S3b-A8-H6 (VHH)
VHH: QVQLVESGGGLVQPGGSLRLSCAASGSIISRVKVHWFRQAPGKSREWVAGIDSGTASYYSDSVKGRFTISRDNAKNTVYLQMNSLKPEDTAVYYCAAENRGYGVDWGQGTQVTVSS
notes: Form: Dimer
Kd [5]: 12.1 nM
EC50 [4]: 1.19 nM
IC50 [6]: 2 nM

B9: MBP-5HVZ-R2D-A6-H6 (VHH, not shown: large carriers; small tags and cut ends)
VHH: QVQLVESGGGLVQPGGSLRLSCAASGSGASIGAMHWFRQAPGKGREWVASITSAGNTYYGDSVKGRFTISRDNAKNTVYLQMNSLKPEDTAVYYCNALAGANYESQWEEYNYWGQGTQVTVSS
IC50 [2]: 6.3 nM
Kd [2]: 19.6 nM

B10: PP913 MBP-5HVZ-S3a-C5-H6 (VHH)
VHH: QVQLVESGGGLVQPGGSLRLSCAASGSIKNTNAMHWFRQAPGKDREWVAGITSGGNSNYGDSVKGRFTISRDNAKNTVYLQMNSLKPEDTAVYYCAAFGYRYDQDYTYDYWGQGTQVTVSS
notes: Form: Dimer
Kd [5]: 1.42 nM
EC50 [4]: 1.53 nM
IC50 [6]: 2.8 nM

B11: MBP-R2C-F6-H6 (VHH, not shown: large carriers; small tags and cut ends)
VHH: QVQLVESGGGLVQPGGSLRLSCAASGRILAANIVHWYRQAPGKEREGVAGITTGGSNYYSDSVKGRFTISRDNAKNTVYLQMNSLKPEDTAVYYCNALGLGSASGSYESWGQGTQVTVSS
Kd [1]: ~3600 nM

B12: MBp-5HVZ-R2C-B3-H6 (VHH, not shown: large carriers; small tags and cut ends)
VHH: QVQLVESGGGLVQPGGSLRLSCAASGTYASYETIAWYRQAPGKQREKVARITGAGSSFYADSVKGRFTISRDNAKNTVYLQMNSLKPEDTAVYYCNADSIPPALRAANTGYWGQGTQVTVSS
IC50 [1]: 1.4 nM
Kd [1]: 33 nM

B13: MBP-R2C-G6-H6 (VHH, not shown: large carriers; small tags and cut ends)
VHH: QVQLVESGGGLVQPGGSLRLSCAASGSIYKYSDVHWFRQAPGKAREAVALLTGAGTTIYGDSVKGRFTISRDNAKNTVYLQMNSLKPEDTAVYYCAAGQGFKATRTFDSWGQGTQVTVSS
Kd [2]: ~3900 nM
